In assay [1] the target is Mouse TBC1D23 (559-684), C-terminal domain (mouse) (UniProt Q8K0F1). Nature of the assay: ITC; peptide (0.8 to 5 mM) titrated into 100 uM TBC1D23 C-terminal domain, 20 injections of 2.4 ul; 20°C; 100 mM NaCl, 100 mM tris pH 7.4, 1 mM TCEP; mean of three runs. Background: ITC needs no label: the signal is the heat of the interaction.
Assay [2] has as its target TBC1D23 C-terminal domain (mouse) (UniProt Q8K0F1). The experiment in a line: ITC; peptide (0.8 to 5 mM) titrated into 100 μM TBC1D23 C-terminal domain, 20°C, 100 mM NaCl, 100 mM tris pH 7.4, 1 mM TCEP, Nano ITC.

TBC1D23 C-terminal domain (mouse), sequence (Q8K0F1 559-684): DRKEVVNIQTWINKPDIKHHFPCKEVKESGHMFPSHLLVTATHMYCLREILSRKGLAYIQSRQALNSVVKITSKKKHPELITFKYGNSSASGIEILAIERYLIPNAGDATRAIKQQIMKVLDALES
Mouse TBC1D23 (559-684), C-terminal domain (mouse), sequence (Q8K0F1 559-684): as above

Turning to “KIAA0319 peptide with the acidic TLY motif”, the Kd (as a rule, the free concentration of one partner at which half of the binding sites on the other are occupied at equilibrium, for simple one-to-one binding) in assay [1] amounted to 35.2 µM. Consider FAM174C peptide (TLY-like motif), for which the Kd in assay [2] worked out at 16 µM. Take NPDC1 peptide with the acidic TLY motif: the Kd in assay [1] stood at 2.9 µM. “NPDC1 peptide (acidic TLY motif of the tail)” registered a Kd in assay [2] of 3 µM. For CPD peptide (acidic TLY region, ITC), in assay [2], the Kd is 10.6 µM and the stoichiometry N (in general, a count of units in the complex or per binding partner) was 1.

As to “FAM174C peptide with the acidic TLY motif”, in assay [1], the Kd amounted to 15.7 µM.

In turn, “KIAA0319 peptide (acidic TLY motif of the tail)” displayed a Kd in assay [2] of 35 µM.
